From the RNAGym collection of RNA variant scans (doi:10.7554/elife.80360)

B1: HDV Ribozyme (parent)
chain: GGCCGGCAUGGUCCCAGCCUCCUCGCUGGCGCCGGCUGGGCAACAUUCCGAGGGGACCGUCCCCUCGGUAAUGGCGAAUGGGACCCA

Variants of: B1
Assay: self-cleavage, relative activity (ratio to wild type); higher = more cleavage; co-transcriptional

First: GGCGGGCAUGGUCCCAGCCUCCUCGCUGGCGCCGGCUGGGCAACAUUCCGAGGGGAGCGUCCCCUCGGUAAUGGCGAAUGGGACCCA
Second: GGCGGGCAUGGUCCCAGCCUCCUCGCUGGCGCCGGCUGGGCAACAUUCCGAGGGGAACGUCCCCUCGGUAAUGGCGAAUGGGACCCA
The self-cleavage of the first is higher: 0.489 for the first, 0.374 for the second.

Compared with GGCGGGCAUGGUCCCGGCCUCCUCGCUGGCGCCGGCUGGGCAACAUUCCGAGGGGACCGUCCCCUCGGUAAUGGCGAAUGGGACCCA, GGCGGGCAUGGUCCCAGCCUCAUCGCUGGCGCCGGCUGGGCAACAUUCCGAGGGGACCGUCCCCUCGGUAAUGGCGAAUGGGACCCA is lower in self-cleavage: 0.453 for the first, 0.142 for the second.

Going from GGCGGGCAUGGUCCCAGCCUCUUCGCUGGCGCCGGCUGGGCAACAUUCCGAGGGGACCGUCCCCUCGGUAAUGGCGAAUGGGACCCA to GGCGGGCAUGGUCCCAGCCUCCUCGCUGGCGCCGGCUGGGUAACAUUCCGAGGGGACCGUCCCCUCGGUAAUGGCGAAUGGGACCCA, the self-cleavage rises from 0.0449 to 0.289.

Going from GGCGGGCAUGGUCCCAGCCUCCUCGCUGGCGCCGGCUGGGAAACAUUCCGAGGGGACCGUCCCCUCGGUAAUGGCGAAUGGGACCCA to GGCGGGCAUGGUCCCAGCCUCCUCGCUGGCGCCGGCUGGGCAACAUUCCGAGGGGACCGUUCCCUCGGUAAUGGCGAAUGGGACCCA, the self-cleavage rises from 0.162 to 0.475.

Going from GGCGGGCAUGGUCCCAGCCUCCUCGCUGGCGCCGGCUGGGCAACAUUCCGAGGGGACCGUCGCCUCGGUAAUGGCGAAUGGGACCCA to GGCGGGCAUGGUUCCAGCCUCCUCGCUGGCGCCGGCUGGGCAACAUUCCGAGGGGACCGUCCCCUCGGUAAUGGCGAAUGGGACCCA, the self-cleavage rises from 0.123 to 0.369.

Going from GGCGGGCAUGGUGCCAGCCUCCUCGCUGGCGCCGGCUGGGCAACAUUCCGAGGGGACCGUCCCCUCGGUAAUGGCGAAUGGGACCCA to GGCGGGCAUGGUACCAGCCUCCUCGCUGGCGCCGGCUGGGCAACAUUCCGAGGGGACCGUCCCCUCGGUAAUGGCGAAUGGGACCCA, the self-cleavage rises from 0 to 0.0277.

Compared with GGCGGGCAUGGUCCCAGCCUCCUCGAUGGCGCCGGCUGGGCAACAUUCCGAGGGGACCGUCCCCUCGGUAAUGGCGAAUGGGACCCA, GGCGGGCAUGGUCCCAGCCUCCUCGGUGGCGCCGGCUGGGCAACAUUCCGAGGGGACCGUCCCCUCGGUAAUGGCGAAUGGGACCCA is lower in self-cleavage: 0.569 for the first, 0.306 for the second.

Compared with GGCGGGCAUGGUCCCAGCCUCCUCGCUGGCGCAGGCUGGGCAACAUUCCGAGGGGACCGUCCCCUCGGUAAUGGCGAAUGGGACCCA, GGCGGGCAUGGUCCCAGCCUCCUCGCUGGCGCGGGCUGGGCAACAUUCCGAGGGGACCGUCCCCUCGGUAAUGGCGAAUGGGACCCA is higher in self-cleavage: 0 for the first, 0.0583 for the second.

Going from GGCGGGCAUGGUCCCAGCCUCCUCGCUGGCGCCGGCUGGGCAACAUUCCGAGGGGACCGUCCCCUCGGUAAUGGCGAGUGGGACCCA to GGCGGGCAUGGUCCCAGCGUCCUCGCUGGCGCCGGCUGGGCAACAUUCCGAGGGGACCGUCCCCUCGGUAAUGGCGAAUGGGACCCA, the self-cleavage falls from 0.0923 to 0.086.

First: GGCGGGCAUGGUCCCAGCCUCCUCGCUGGAGCCGGCUGGGCAACAUUCCGAGGGGACCGUCCCCUCGGUAAUGGCGAAUGGGACCCA
Second: GGCGGGCAUGGUCCCAGCCUCCUCGCUGGCGCCGGCUGGGCAACAUUCCGAGGGGACCGUCCCCUCGGUAAUGGCGAAUGGGACCCC
The self-cleavage of the first is lower: 0.0601 for the first, 0.373 for the second.

Going from GGCGGGCAUGGUCCCAGCCUCCUCGCUGGCGCCGGCUGGGCAACAUUCCGAGGGGACCGUCCCCUCGGUAAUGGCGAAUGGGACCCG to GGCGGGCAUGGUCCCAGCCUCCUCGCUGGCGCCGGCUGGGCAACAUUUCGAGGGGACCGUCCCCUCGGUAAUGGCGAAUGGGACCCA, the self-cleavage rises from 0.0715 to 0.306.

Compared with GGCGGGCAUGGUCCCAGCCUCCUCGCUGGCGCCGGCUGGGCAACAUUGCGAGGGGACCGUCCCCUCGGUAAUGGCGAAUGGGACCCA, GGCGGGCAUGGUCCCAGCCUCCUCGCUGGCGCCGGCUGGGCAACAUUACGAGGGGACCGUCCCCUCGGUAAUGGCGAAUGGGACCCA is higher in self-cleavage: 0.485 for the first, 0.59 for the second.

Compared with GGCGGGCAUGGUCCCAGCCUCCUCGCUGGCGCCGGCUGGGCAACAUUCCGAGGGGACCGUCCCCUCGGUAAUGGUGAAUGGGACCCA, GGCGGGCAUGGUCCCAGCCUCCUCGCUGGCGCCGGCUGGGCAAGAUUCCGAGGGGACCGUCCCCUCGGUAAUGGCGAAUGGGACCCA is higher in self-cleavage: 0.0396 for the first, 0.0449 for the second.

Compared with GGCGGGCAUGGUCCCAGCCUCCUCGCUGGCGCCGGCUGGGCAACAUUCCGAGGGGACCGUCCCCUCGGUAAUGGCGAAUGGGUCCCA, GGCGGGCAUGGUCCCAGCCUCCUCGCUGGCGCCGGCUGGGCAACAUUCCGAGGGGACCGUCCCCUCGGUAAUGGCGAAUGGGGCCCA is higher in self-cleavage: 0.136 for the first, 0.192 for the second.

Compared with GGCGGGCAUGGUCCCAGCCUCCUCGCUGGCGCCGGCUGGGCAACAUUCCGAGGGGACCGUCCCCUAGGUAAUGGCGAAUGGGACCCA, GGCGGGCAUGGUCCCAGCCUCCUCGCUGGCGCCGGCUGGGCAACAUUCCGAGGGGACCGUCCCCUUGGUAAUGGCGAAUGGGACCCA is higher in self-cleavage: 0.369 for the first, 0.445 for the second.

First: GGCGGGCAUGGUCCCAGCCUCCUCGCUGGCGCCGGCUGGGCAACUUUCCGAGGGGACCGUCCCCUCGGUAAUGGCGAAUGGGACCCA
Second: GGCGGGCAUGGUCCCAGCCUCCUCGCUGGCGCCGGCUGGGCAACGUUCCGAGGGGACCGUCCCCUCGGUAAUGGCGAAUGGGACCCA
The self-cleavage of the first is lower: 0.161 for the first, 0.201 for the second.
